Laboratory results from the supplement of paper PMC9170038.

Test system: MS2 coat protein
Assay: apparent KD of MS2 coat protein; designed switch direction (-1 OFF switch, 1 ON switch): 1; higher = weaker reporter binding
In short: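 Designed RNA switches were transcribed on Illumina chips by stalled E. coli RNA polymerase and titrated with SNAP-549-labelled MS2 coat protein from 0.7 or 1.5 nM, doubling to 3 µM. Step length ran from 0.8–1.5 h at the lowest concentration to 10–20 min at the highest. The apparent KD is the median over clusters for each design, from curve-fitted normalised cluster fluorescence.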

[1] = Eterna round: R95, input ligand: FMN 200 uM
[2] = Eterna round: R95, input ligand: microRNA oligo, concentration not stated
[3] = Eterna round: R95, input ligand: none
[4] = input ligand: microRNA oligo, concentration not stated

Row | Sequence | apparent KD of MS2 coat protein [1] | apparent KD of MS2 coat protein [2] | apparent KD of MS2 coat protein [3] | apparent KD of MS2 coat protein (input ligand: FMN 200 uM) | apparent KD of MS2 coat protein [4] | apparent KD of MS2 coat protein (input ligand: none)
1 | AUUAAACAUGAGGAUCACCCAUGUCAACAAAGUCGAGGAUAUGGGCAUAUUAUAUAAUAACCAGAAGGCGAAUAAU [salish99_ss1_r3_084] (puzzle: Same State 1) | 0.0111 µM | 0.0128 µM | 0.0138 µM |  |  | 
2 | AUUAUUAAUGCAGGAUAUGAUUAACAUGAGGAUCACCCAUGUGGUGUUGUGAGUAAGGAGAGUGAUCAGAAGGGCAUUUUGUUU [JMF's solution 12] (Eterna round: R96, puzzle: Same State NG 2) |  |  |  | 1.13 µM | 0.526 µM | 0.591 µM
3 | AUUAUUAAUGCAGGAUAUGAUUAACAUGAGGAUCACCCAUGUGGUGUUGUGAGUAAGGAGAGUGAUCAGAAGGGCAUUUUUUCU [JMF's solution 17] (Eterna round: R96, puzzle: Same State NG 2) |  |  |  | 0.558 µM | 0.442 µM | 0.585 µM
4 | AUUCGUUUGAUAGGAUAUCACUUUACAUGAGGAUCACCCAUGUUCACCACGCUGGUUUCUUAUACUGAGAAGGAUCUUGAUGAC [JR_SSNG2_Sub010] (Eterna round: R96, puzzle: Same State NG 2) |  |  |  | 0.0195 µM | 0.0171 µM | 0.0313 µM
5 | AUUGCUUACGCAGGAUAUGAUGCGAAAAUUGCGUCAGAAGGGUGAAGUAUCUCAUUGCAACAGGACAUGAGGAUCACCCAUGUC [SameState NG1 #99] (Eterna round: R96, puzzle: Same State NG 1) |  |  |  | 0.15 µM | 0.303 µM | 0.455 µM
6 | AUUGCUUACGCAGGAUAUGAUGCGGAAACUGCGUCAGAAGGGUGAACAGAAUCGUUGCAAGAAGACAUGAGGAUCACCCAUGUC [SameState NG1 #96] (Eterna round: R96, puzzle: Same State NG 1) |  |  |  | 0.0339 µM | 0.0335 µM | 0.0444 µM
7 | AUUGCUUUCGCAGGAUAUGAUGCGAAAAUUGCGUCAGAAGGGUGGAGUAUCUCAUUGCAACAGGACAUGAGGAUCACCCAUGUC [SameState NG1 #88] (Eterna round: R96, puzzle: Same State NG 1) |  |  |  | 0.0567 µM | 0.14 µM | 0.247 µM
8 | AUUUUUAAUGCAGGAUAUGAUUAACAUGAGGAUCACCCAUGUGGUGUUGUGAGUAAGGAGAGUGAUCAGAAGGGCAUUUUUUUA [JMF's solution 89] (Eterna round: R96, puzzle: Same State NG 2) |  |  |  | 1.01 µM | 0.554 µM | 0.585 µM
9 | CAAGAAAACGCAGGAUAUACUCGGGCUACCCGAGUAGAAGGGUGACACAUGAGGAUCACCCAUGUACAUAGCAUUAGCUAUGGA [Onedve] (Eterna round: R96, puzzle: Same State NG 1) |  |  |  | 2.27 µM | 0.827 µM | 0.77 µM
10 | CACAAUCUAUCUGAGGAUAUCAUGAAAAAAACAUGAGGAUCACCCAUGUGCAGGAAAACUGCAUAUGAGAAGGCAGAUAGAUUGG [salish99_SS2_r3_014] (Eterna round: R96, puzzle: Same State 2) |  |  |  |  | 0.504 µM | 
11 | CACAAUCUAUCUGAGGAUAUCAUGAAAAAAACAUGAGGAUCACCCAUGUGCAGGAAAACUGCAUAUGAGAAGGCAGAUAGAUUGG [salish99_SS2_r3_014] (puzzle: Same State 2) | 0.0297 µM | 0.577 µM | 1.09 µM |  |  | 
12 | CACGUCUAGGUAGGAUAUGAGGUGCCACAGGGAAAAGCCUAUGGACAUGAGGAUCACCCAUGUCCUCAGAAGGGCCAGACGUGA [Inzala] (Eterna round: R96, puzzle: Same State NG 2) |  |  |  | 0.0259 µM | 0.0369 µM | 0.0524 µM
13 | CAGCACUGUCGAGAGGAUAUGCGGUGAUGGACAUGAGGAUCACCCAUGUUAGCGACAGCAUCACGGCAGAAGGCUCUGCUGCUGC [Soteed Omei mod 36] (puzzle: Same State 2) |  | 0.0477 µM |  |  |  | 
14 | CAGCGCUGUCGAGAGGAUAUGCGGUGAUGGACAUGAGGAUCACCCAUGUUAGCGGUAGCAUUACGGUAGAAGGCUCUACAGCUGC [Soteed - 3] (puzzle: Same State 2) |  | 0.0247 µM |  |  |  | 
15 | CCGUUCAAUAAACAUGAGGAUCACCCAUGUUAUAAUAUGGGUGAGGAUAUGCAUCUGAAACAGGUGCAGAAGGCAUAAGAGCGG [JL SSNG3 3.92] (Eterna round: R96, puzzle: Same State NG 3) |  |  |  | 0.214 µM | 0.0377 µM | 0.1 µM
16 | CCUUAACAUGAGGAUCACCCAUGUAACAAGGAGUAAGGAUAUACAUGGGAAAACAGUCAUGUAGAAGGUACAAAAG [Rexereon] (puzzle: Same State 1) | 0.015 µM | 0.0118 µM | 0.018 µM |  |  | 
17 | CGCCAGAGAGCAGGAUAUGGGCCACGGCCUAAGGGCUGUGAACUCACAUGAGGAUCACCCAUGUCCCAGAAGGGCUCCUGGCGG [Veatzain] (Eterna round: R96, puzzle: Same State NG 2) |  |  |  | 0.0624 µM | 1.24 µM | 2.11 µM
